Data taken from patent US6306622, “cDNA encoding a BMP type II receptor” (The Procter & Gamble Co., dated 2001).
Where “and” joins values, the source holds several entries; their conditions need not be identical. Equal entries are not always repeated. One block for each binder: values may come before it.

Legend:
[1] = target: T1, mouse BMP receptor kinase protein (m-BRK-3) (mouse); assay: whole cell binding of [125I]-BMP-4 to COS-1 cells transfected with pJT6-mBRK-3S or pJT6-mBRK-3L; conditions: remark: other sources report otherwise; scale: times the level of mock transfected cells
T1 chain: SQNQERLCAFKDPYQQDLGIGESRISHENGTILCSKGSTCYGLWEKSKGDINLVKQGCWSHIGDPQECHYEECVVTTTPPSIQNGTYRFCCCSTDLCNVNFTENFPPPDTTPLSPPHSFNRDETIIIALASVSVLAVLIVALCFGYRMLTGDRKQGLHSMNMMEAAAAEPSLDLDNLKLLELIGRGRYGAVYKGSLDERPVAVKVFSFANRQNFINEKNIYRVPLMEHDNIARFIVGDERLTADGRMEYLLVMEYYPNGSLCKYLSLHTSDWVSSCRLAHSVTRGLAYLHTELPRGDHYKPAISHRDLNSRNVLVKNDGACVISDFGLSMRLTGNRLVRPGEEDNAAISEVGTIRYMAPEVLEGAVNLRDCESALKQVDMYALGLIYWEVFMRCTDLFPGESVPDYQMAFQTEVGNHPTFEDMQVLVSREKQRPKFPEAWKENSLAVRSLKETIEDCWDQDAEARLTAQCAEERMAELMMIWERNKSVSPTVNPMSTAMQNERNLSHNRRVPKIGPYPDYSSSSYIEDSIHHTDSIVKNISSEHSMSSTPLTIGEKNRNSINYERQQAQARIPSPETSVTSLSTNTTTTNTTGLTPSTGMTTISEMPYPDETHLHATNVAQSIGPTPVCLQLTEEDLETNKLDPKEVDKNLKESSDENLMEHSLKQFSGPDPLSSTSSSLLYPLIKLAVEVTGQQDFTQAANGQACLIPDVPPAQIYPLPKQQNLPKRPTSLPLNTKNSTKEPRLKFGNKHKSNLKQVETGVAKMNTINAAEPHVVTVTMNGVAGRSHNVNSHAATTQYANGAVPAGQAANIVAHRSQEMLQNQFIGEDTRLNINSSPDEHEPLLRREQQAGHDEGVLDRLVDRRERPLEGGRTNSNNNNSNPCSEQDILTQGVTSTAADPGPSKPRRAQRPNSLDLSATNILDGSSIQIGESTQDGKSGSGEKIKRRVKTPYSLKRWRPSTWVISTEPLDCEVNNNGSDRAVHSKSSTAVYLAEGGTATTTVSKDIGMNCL

[^125 I]-BMP-4 = target: T2, [^125 I]-BMP-4 (Homo sapiens (Human), UniProt P12644, 125I label (iodinated with IODOBEADS or by the chloramine-T method)); assay: covalent crosslinking (DSS) to co-transfected COS-1 cells, SDS gel
T2 sequence: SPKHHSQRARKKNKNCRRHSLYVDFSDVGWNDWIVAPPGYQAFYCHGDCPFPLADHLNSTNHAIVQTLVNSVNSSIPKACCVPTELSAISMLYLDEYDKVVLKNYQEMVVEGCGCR
Source text: COS-1 cells are transfected with the cDNA for m-BRK-3 using the construct pJT6-mBRK-3S, and/or with cDNAs for BRK-1 (using pJT4-J159F) or BRK-2 (using pJT3-BRK-2). The cells are then allowed to bind [^125I]-BMP-4, crosslinked with disuccinimidyl suberate, immunoprecipitated with antibodies to BRK-1 or BRK-2, and subjected to SDS gel electrophoresis. Antisera used are indicated below the lanes: PI, preimmune; 1379, for cells transfected with cDNA for BRK-1; 1380, for cells transfected with cDNA for BRK-2. Position of molecular weight standards is indicated on the left. Left to right, COS-1 cells transfected with BRK-1 plus m-BRK-3 (preimmune serum); BRK-1 alone; BRK-1 plus m-BRK-3; BRK-2 plus m-BRK-3; BRK-2 alone; and BRK-2 plus m-BRK-3 (preimmune serum).
COS-1 cells are transfected with the cDNA for m-BRK-3, using the construct pJT6-mBRK-3 S, and/or with cDNAs for BRK-1 (using pJT4-J159F) or BRK-2 (using pJT3-BRK-2) as described in Example 5. The transfected cells are incubated with [^125I]-BMP-4, crosslinked, and subjected to immunoprecipitation with antibodies to the appropriate type I receptor or preimmune serum as described in example 8, except that DSS is used as the crosslinking agent rather than disuccinimidyl glutarate. In cells transfected with cDNA for BRK-1 alone, a single band is precipitated by antibodies to BRK-1, migrating at an apparent molecular weight of 81 kD. […]

specific binding, times the level seen with mock transfected cells [1]: 4 and 4 to 7
B1: [^125 I]-BMP-4, P12644 (ligand)
chain: T2 sequence
modifications: here or on the partner: 125I label (iodinated with IODOBEADS or by the chloramine-T method)

binding result ([^125 I]-BMP-4): binds
B2: m-BRK-3/BRK-1 complex (receptor)
chain 1: T1 chain
chain 2: QNLDSMLHGTGMKSDLDQKKPENGVTLAPEDTLPFLKCYCSGHCPDDAINNTCITNGHCFAIIEEDDQGETTLTSGCMKYEGSDFQCKDSPKAQLRRTIECCRTNLCNQYLQPTLPPVVIGPFFDGSIRWLVVLISMAVCIVAMIIFSSCFCYKHYCKSISSRGRYNRDLEQDEAFIPVGESLKDLIDQSQSSGSGSGLPLLVQRTIAKQIQMVRQVGKGRYGEVWMGKWRGEKVAVKVFFTTEEASWFRETEIYQTVLMRHENILGFIAADIKGTGSWTQLYLITDYHENGSLYDFLKCATLDTRALLKLAYSAACGLCHLHTEIYGTQGKPAIAHRDLKSKNILIKKNGSCCIADLGLAVKFNSDTNEVDIPLNTRVGTKRYMAPEVLDESLNKNHFQPYIMADIYSFGLIIWEMARRCITGGIVEEYQLPYYNMVPSDPSYEDMREVVCVKRLRPIVSNRWNSDECLRAVLKLMSECWAHNPASRLTALRIKKTLAKMVESQDVKI

binding result ([^125 I]-BMP-4): binds
B3: m-BRK-3/BRK-2 complex (receptor)
chain 1: T1 chain
chain 2: RKEDSEGTAPAPPQKKLSCQCHHHCPEDSVNSTCSTDGYCFTIIEEDDSGGHLVTKGCLGLEGSDFQCRDTPIPHQRRSIECCTGQDYCNKHLHPTLPPLKNRDFAEGNIHHKALLISVTVCSILLVLIIIFCYFRYKRQEARPRYSIGLEQDETYIPPGESLKDLIEQSQSSGSGSGLPLLVQRTIAKQIQMVKQIGKGRYGEVWMGKWRGEKVAVKVFFTTEEASWFRETEIYQTVLMRHENILGFIAADIKGTGSWTQLYLITDYHENGSLYDYLKSTTLDTKGMLKLAYSSVSGLCHLHTGIFSTQGKPAIAHRDLKSKNILVKKNGTCCIADLGLAVKFISDTNEVDIPPNTRVGTKRYMPPEVLDESLNRNHFQSYIMADMYSFGLILWEIARRCVSGGIVEEYQLPYHDLVPSDPSYEDMREIVCIKRLRPSFPNRWSSDECLRQMGKLMMECWAHNPASRLTALRVKKTLAKMSESQDIKL
